From patent publication US20210113678A1

Tests used:
[1] = molecular target: HLA-A*0201 molecule on human T2 cells (human); test: T2 cells expressing HLA-A*0201, anti-HLA-A2-PE, FACS; conditions: remark: other sources report otherwise
[2] = molecular target: HLA-A*0201 molecule on human T2 cells (human); test: T2 cells expressing HLA-A*0201, anti-HLA-A2-PE, FACS (Example 9)

ILDEAYVMA [EGFR-H]
Concentration of peptide that induces 20% of HLA-A2 expression [1]: 2.8 µM | In vitro binding affinity (relative to reference peptide HIV pol 589-597) [1]: 0.2 | mean relative fluorescence intensity at 1.5625 µM peptide (% of HIV peptide) [1]: 12 | mean relative fluorescence intensity at 3.125 µM peptide (% of HIV peptide) [1]: 28.6 | mean relative fluorescence intensity at 6.25 µM peptide (% of HIV peptide) [1]: 33.7 | mean relative fluorescence intensity at 25 µM peptide (% of HIV peptide) [1]: 91.5 | mean relative fluorescence intensity at 50 µM peptide (% of HIV peptide) [1]: 107 | mean relative fluorescence intensity at 100 µM peptide (% of HIV peptide) [1]: 87.4

IVGAETFYV (modifications not checked) [reference peptide HIV pol 589-597, P04585 1021-1029]
In vitro binding affinity (relative to reference peptide HIV pol 589-597) [2]: 1
